Consider one molecule from article PMC5177531.

Test [1] has as its target T1, 6TM/E11 mu opioid receptor site 6TM variant (Mus musculus), P42866.
T1 chain: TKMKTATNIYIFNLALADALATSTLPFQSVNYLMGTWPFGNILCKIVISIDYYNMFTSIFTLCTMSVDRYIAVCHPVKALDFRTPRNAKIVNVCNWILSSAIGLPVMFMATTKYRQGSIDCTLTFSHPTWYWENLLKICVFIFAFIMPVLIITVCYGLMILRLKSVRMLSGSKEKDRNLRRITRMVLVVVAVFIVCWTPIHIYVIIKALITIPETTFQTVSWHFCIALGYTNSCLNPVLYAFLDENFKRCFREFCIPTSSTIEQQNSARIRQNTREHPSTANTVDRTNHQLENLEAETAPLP
As to the kind of experiment: competition. The conditions noted are these: modification not given.

The target of test [2] is mMOR-1 (Mus musculus), P42866. As to the kind of experiment: competition. The conditions noted are these: modification not given.
Sequence of mMOR-1 (Mus musculus), P42866 (P42866 whole entry): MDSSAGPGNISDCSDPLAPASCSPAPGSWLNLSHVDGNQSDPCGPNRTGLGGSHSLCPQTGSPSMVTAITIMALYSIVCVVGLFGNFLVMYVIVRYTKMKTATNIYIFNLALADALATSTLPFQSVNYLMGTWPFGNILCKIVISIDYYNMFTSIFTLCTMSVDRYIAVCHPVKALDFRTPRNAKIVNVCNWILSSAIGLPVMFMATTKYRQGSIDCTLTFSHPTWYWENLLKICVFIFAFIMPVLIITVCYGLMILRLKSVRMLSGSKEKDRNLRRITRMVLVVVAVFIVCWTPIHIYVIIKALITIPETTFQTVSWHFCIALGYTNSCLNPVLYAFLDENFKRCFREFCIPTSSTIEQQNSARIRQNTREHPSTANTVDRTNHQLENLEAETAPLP

Consider YAFGYPS [Dermorphin], for which the Ki was > 500 nM in test [1] and 4 nM in test [2].

One may read the Ki as a dissociation constant, usually derived from enzyme kinetics or from competition with a known ligand. A low value points to tighter binding.
